Experimental data: patent US20230272055A1 (Incyte, published 2023)
Residue numbers refer to the chain shown, from its start.

T1: human mutCALR on BaF3 cells stably expressing human MPL and human mutCALR (MPL-mutCALR cells) (human)
T1 construct: also called mutant calreticulin
T1 chain: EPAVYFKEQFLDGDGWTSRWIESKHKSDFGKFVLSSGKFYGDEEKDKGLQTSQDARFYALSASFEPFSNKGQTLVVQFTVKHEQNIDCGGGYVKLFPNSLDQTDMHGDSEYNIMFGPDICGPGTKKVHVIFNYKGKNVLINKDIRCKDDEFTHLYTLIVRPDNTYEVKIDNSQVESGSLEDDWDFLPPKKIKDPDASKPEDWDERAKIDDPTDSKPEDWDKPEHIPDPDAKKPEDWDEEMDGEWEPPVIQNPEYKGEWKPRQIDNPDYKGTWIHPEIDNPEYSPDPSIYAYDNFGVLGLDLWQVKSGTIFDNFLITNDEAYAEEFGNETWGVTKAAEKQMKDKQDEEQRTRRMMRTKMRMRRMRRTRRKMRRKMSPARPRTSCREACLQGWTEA

T2: human Type 1 mutCALR on Ba/F3 cells expressing MPL and Type 1 mutCALR (human)
T2 chain: T1 chain

B1: anti-mutCALR antibody clone 53 (antibody, human IgG1, lambda, V domains shown)
VH: QVQLVQSGAEVKKPGASVKVSCKVSGYTLTELSMHWVRQAPGKGLEWMGGFDPEDGETIYAQKFQGRVTMTEDTSTDTAYMELSSLRSEDTAVYYCATDIQGLAEFDYWGQGTLVTVSS
VL: QSALTQPRSVSGSPGQSVTISCTGTNTDVGAYIDVSWYQQHPGKAPKLIIYDVSKWPSGVPDRFSGSKSGNTASLTISGLQAEDEADYYCCSYAGNHSFSFGGGTKVTVLG
notes: human IgG1
B2: anti-mutCALR antibody clone 6 (antibody, human IgG1, lambda)
heavy: not shown
light: QSALTQPASVSGSPGQSITISCTGTSSDVGGYNYVSWYQQHPGKAPKLMIYEVSNRPSGVSNRFSGSNSGNTATLTINRVEAGDEADYYCQVWDSSNDLLIFGGGTKLTVLGQPKAAPSVTLFPPSSEELQANKATLVCLISDFYPGAVTVAWKADSSPVKAGVETTTPSKQSNNKYAASSYLSLTPEQWKSHRSYSCQVTHEGSTVEKTVAPTECS
notes: human IgG1
B3: anti-mutCALR antibody clone 11 (antibody, human IgG1, lambda, V domains shown)
VH: EVRLVQSGAEVKKPGASVKVSCKVSGYTLTELSMQWVRQAPGKGLEWMGGFDPDDGETMYAEKFQGRLTVTEDTSTDTVYMELRSLTSEDTALYFCATSPGYDFFDYWGQGTLVTVSS
VL: QSALTQPRSVSGSPGQSVTISCTGTSSDVGGYNYVSWYQQHPGKAPKLMIYDVSKRPSGVPDRFSGSNSGNTATLTINRVEAGDEADYYCQVWDSSNDLLIFGGGTKLTVLG
notes: human IgG1
B4: anti-mutCALR antibody clone 12 (antibody, human IgG1, lambda, V domains shown)
VH: B3 VH with R3Q, D55G
VL: SYVLTQPPSVSVAPGQTARVSCGGNNIGSKSVNWYRQKPGQAPVLVIYDDSDRPSGIPERFSGSNSGNTATLTINRVEAGDEADYYCQVWDSSNDLLIFGGGTKLTVLG
notes: human IgG1
B5: anti-mutCALR antibody clone 20 (antibody, human IgG1, lambda, V domains shown)
VH: B3 VH with R3Q
VL: B4 VL with Q16K, V20I, S21T, S31G, N33H, R36Q, I47V
notes: human IgG1
B6: anti-mutCALR antibody clone 16 (antibody, human IgG1, lambda, V domains shown)
VH: B3 VH with R3Q
VL: B4 VL with Q16K, V20I, S21T, I27T, N33H, R36Q, I47V
notes: human IgG1
B7: anti-mutCALR antibody clone 24 (antibody, human IgG1, lambda, V domains shown)
VH: B3 VH with R3Q, F64L
VL: B4 VL with Q16K, V20I, S21T, N33H, R36Q, I47V
notes: human IgG1
B8: anti-mutCALR antibody clone 29 (antibody, human IgG1, lambda, V domains shown)
VH: B3 VH with R3Q
VL: B4 VL with Q16K, V20I, S21T, N33H, R36Q, I47V, N75S, N94S, T103A
notes: human IgG1
B9: anti-mutCALR antibody clone 27 (antibody, human IgG1, lambda, V domains shown)
VH: B3 VH with R3Q
VL: B4 VL with V20I, S21T, S29I, N33H, R36Q, I47V, S51R
notes: human IgG1
B10: anti-mutCALR antibody clone 30 (antibody, human IgG1, lambda, V domains shown)
VH: B3 VH with R3Q
VL: B4 VL with Q16K, R19T, V20I, S21T, S29T, N33H, R36Q, I47V
notes: human IgG1
B11: anti-mutCALR antibody clone 19 (antibody, human IgG1, lambda, V domains shown)
VH: B3 VH with R3Q, S75P
VL: SYVLTQPLSVSVALGQTARITCGGSNIGDIRVHWYQQKPGQAPVLVVYDDSDRPSGIPERFSGSNSGNTATLTINRVEAGDEADYYCQVWDSSNDLLIFGGGTKLTVLG
B12: anti-mutCALR antibody clone 15 (antibody, human IgG1, lambda)
heavy: not shown
light: SYELTQPPSVSVAPGKTARITCGGDNIGSKSVHWYQQKPGQAPVLVVYDDSDRPSGIPERFSGSNSGNTATLTINRVEAGDEADYYCQVWDSSNDLLIFGGGTKLTVLGQPKAAPSVTLFPPSSEELQANKATLVCLISDFYPGAVTVAWKADSSPVKAGVETTTPSKQSNNKYAASSYLSLTPEQWKSHRSYSCQVTHEGSTVEKTVAPTECS
notes: human IgG1
B13: anti-mutCALR antibody clone 25 (antibody, human IgG1, lambda, V domains shown)
VH: B3 VH with R3Q
VL: B11 VL with V3E, L8P, S11A, L14P, S25N, D29R, I30K, R31A
notes: human IgG1
B14: anti-mutCALR antibody clone 21 (antibody, human IgG1, lambda, V domains shown)
VH: B3 VH with R3Q, K23E
VL: B4 VL with N75S
notes: human IgG1
B15: anti-mutCALR antibody clone 23 (antibody, human IgG1, lambda, V domains shown)
VH: B3 VH with R3Q
VL: B11 VL with L8P, L14P, S25N, D29I, I30K, R31S
notes: human IgG1
B16: anti-mutCALR antibody clone 18 (antibody, human IgG1, lambda, V domains shown)
VH: B3 VH with R3Q
VL: B4 VL with Q16K, V20I, S21T, N33H, R36Q, I47V, S55L
notes: human IgG1
B17: anti-mutCALR antibody clone 28 (antibody, human IgG1, lambda, V domains shown)
VH: B3 VH with R3Q
VL: SYELTQPPSVSVAPGQTARITCGGNNIGSKSVHWYQQKPGQAPVLVVYDDSDRPSGIPERFSGSNSGNTATLTISRVEAGDEADYYCQVWDADSDQLIFGGGTKLTVLG
notes: human IgG1
B18: anti-mutCALR antibody clone 26 (antibody, human IgG1, lambda, V domains shown)
VH: B3 VH with R3Q
VL: B17 VL with E3V, A92S, D93S, S94I, Q96H, L105V
notes: human IgG1
B19: anti-mutCALR antibody clone 13 (antibody, human IgG1, lambda, V domains shown)
VH: B3 VH with E1Q, R3Q
VL: not shown
notes: human IgG1
B20: anti-mutCALR antibody clone 17 (antibody, human IgG1, lambda)
heavy: not shown
light: SYVLTQPPSVSVAPGQTARITCGGSDIGDEIVHWYQQKPGQAPVLVVYDDSDRPSGIPERFSGSNSGNTATLTISRAQAGDEADYYCQVWDSSSDHLIFGGGTKLTVLGQPKAAPSVTLFPPSSEELQANKATLVCLISDFYPGAVTVAWKADSSPVKAGVETTTPSKQSNNKYAASSYLSLTPEQWKSHRSYSCQVTHEGSTVEKTVAPTECS
notes: human IgG1
B21: anti-mutCALR antibody clone 22 (antibody, human IgG1, lambda, V domains shown)
VH: B3 VH with R3Q
VL: B11 VL with L8P, L14P, Q16K, S25N, D29S, I30K, R31N
notes: human IgG1
B22: anti-mutCALR antibody clone 37 (antibody, human IgG1, lambda, V domains shown)
VH: QVQLVQSGAEVKKPGATVKISCKVSGYSFTDYFIHWVQQAPGKGLAWVGLVDPEDGETIYAEKFQGRVTITADTSTDTAYMELSSLRSEDTAVYYCATPGGILTDPDAFDIWGQGTMVTVSS
VL: QSALTQPASVSGSPGQSITISCTGTSSDVGGYNYVSWYQQHPGKAPKLMIYDVSNRPSGVSNRFSGSKSGNTASLTISGLQAEDEADYYCSSYTSSSTFYVFGTGTKVTVLG
notes: human IgG1
B23: anti-mutCALR antibody clone 32 (antibody, human IgG1, lambda, V domains shown)
VH: B22 VH
VL: B22 VL with D52E, F99P
notes: human IgG1
B24: anti-mutCALR antibody clone 36 (antibody, human IgG1, lambda, V domains shown)
VH: B22 VH
VL: B22 VL with A8R, I18V, T23A, S26G, Q40H, S54N, N55K, S61P, N62D
notes: human IgG1
B25: anti-mutCALR antibody clone 31 (antibody, human IgG1, lambda, V domains shown)
VH: B22 VH
VL: QSALTQPASVSGSPGQSVTISCTGTSSDVGGYNYVSWYQHHPGKAPKLMIYDVNKRPSGVPDRFSGSKSGNTASLTISGLQAEDEADYYCSSYIPSSTRWVFGGGTKLTVLG
notes: human IgG1
B26: anti-mutCALR antibody clone 35 (antibody, human IgG1, lambda, V domains shown)
VH: B22 VH with K63R
VL: B22 VL with D52E, F99P
notes: human IgG1

Biological target: T1, human mutCALR on BaF3 cells stably …
Assay: flow cytometry, BaF3 MPL-mutCALR cells
Method: On the day of the assay, cells were washed and resuspended in assay buffer. Approximately 200,000 cells/well were added to 96-well plates and stained with the indicated concentration of antibodies for 30 minutes on ice. Cells were then washed and stained with goat anti-human secondary conjugated to R-phycoerythrin (R-PE) (Jackson Immuno Research Laboratories) for 30 minutes on ice. The cells were then washed and analyzed by flow cytometry.

Row | Binder | EC50 [µg/mL] | MPL-mutCALR AUC
1 | B1 | 0.02 | 64600
2 | B2 | 0.3 | 58200
3 | B3 | 0.05 | 69700
4 | B4 | 0.02 | 61000
5 | B5 | – | 92700
6 | B6 | 0.04 | 63200
7 | B7 | 29.3 | 67800
8 | B8 | 3.19 | 77900
9 | B9 | – | 55200
10 | B10 | – | 63800
11 | B11 | – | 91600
12 | B12 | – | 87600
13 | B13 | 77.3 | 65200
14 | B14 | 0.7 | 70100
15 | B15 | – | 65900
16 | B16 | – | 91900
17 | B17 | 4.15 | 60400
18 | B18 | 0.42 | 41500
19 | B19 | 0.04 | 57700
20 | B20 | – | 72700
21 | B21 | – | 124000
22 | B22 | 9.64 | 80900
23 | B23 | 0.01 | 52500
24 | B24 | 0.01 | 73800
25 | B25 | 0.01 | 45700
26 | B26 | 0.02 | 62100

Biological target: T2, human Type 1 mutCALR on Ba/F3 cells …
Assay: cell-based or functional assay

Row | Binder | IC50, inhibition of pSTAT5 [µg/mL]
27 | B1 | 0.402
28 | B2 | 0.03
29 | B3 | 0.052
30 | B4 | 0.061
31 | B5 | 0.018
32 | B6 | 0.028
33 | B7 | 0.031
34 | B8 | 0.037
35 | B9 | 0.037
36 | B10 | 0.054
37 | B11 | 0.062
38 | B12 | 0.041
39 | B13 | 0.024
40 | B14 | 0.032
41 | B15 | 0.03
42 | B16 | 0.036
43 | B17 | 0.193
44 | B18 | 0.125
45 | B19 | 0.091
46 | B20 | 0.031
47 | B21 | 0.035
48 | B22 | 0.039
49 | B23 | 0.47
50 | B24 | 0.092
51 | B25 | 26.8
52 | B26 | 0.444
